Source: US20020082235A1

Biological target: Hoxc-8 (in the transfected C3H10T1/2 and 2T3 cells)
Assay: cell-based or functional assay

Osteopontin promoter activity (OPN-266 luciferase reporter, C3H10T1/2 cells), 3 to 5 fold:
Smad1-M (101-191) fused with a nuclear localization signal, Smad1-L (aa 145-276) fused with a nuclear localization signal, Smad1-NL (amino acids 3-276) fused with a nuclear localization signal
